Reference: the RNAGym collection of RNA variant scans (doi:10.1073/pnas.2313332121)

B1: TPR t1 (parent)
chain: GACCAAUCUGCCCUCAGAGCUCGAGAACAUCUUCGGAUGCAGAGGAGGCAGGCUUCGGUGGCGCGAUAGCGCCAACGUCCUCAACCUCCAAUGCAUCCCACCACAUGAUGAUGCCUGAAGAGCCUUGGUUUUUUG

Variants of: B1
Assay: polymerase ribozyme fitness, log enrichment relative to wild type (log ratio); higher = more active; in vitro selection for triplet polymerase activity
Summary of the method: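 Streptavidin-bead capture of gel-excised extended constructs, followed by RT-PCR, closed a single triplicate in vitro selection round. That round began by annealing PCR-built, transcribed mutant libraries of each subunit of a heterodimeric triplet polymerase ribozyme with a biotinylated primer, the partner subunit and triplets, then incubating them frozen at −7 °C. After Illumina sequencing of inputs and outputs, genotypes needed ≥10 input reads and ≥1 read per output. Fitness is the base-2 logarithm of genotype enrichment over wild-type enrichment, using inverse-variance-weighted replicate averages.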

Compared with C53G G63A A95G G110A U125C, U54A C89G is higher in “polymerase ribozyme fitness (log ratio)” value: -4.78 for the first, -1.31 for the second.

Compared with U54A C124A G128U, C53A G69U G120C is higher in “polymerase ribozyme fitness (log ratio)” value: -0.136 for the first, 1.96 for the second.

Compared with U54G G60A U92A G107C G117A, U54A C64U is higher in “polymerase ribozyme fitness (log ratio)” value: -6.96 for the first, -0.112 for the second.

First: U54A G61U C62U U96G
Second: C56A A83G
The “polymerase ribozyme fitness (log ratio)” value of the first is lower: -6.42 for the first, -1.6 for the second.

First: U54G C62U U81A
Second: C53A U78C G113U
The “polymerase ribozyme fitness (log ratio)” value of the first is higher: -1.77 for the first, -3.16 for the second.

Going from C53G C102A to U55C C62U C89A U109A, the “polymerase ribozyme fitness (log ratio)” value falls from -2.97 to -6.44.

Going from U54G U112A G117C to C53A G58A C89G C102U A103U C123G, the “polymerase ribozyme fitness (log ratio)” value falls from -4.03 to -5.91.

Going from U55G G117U to U55G G61A C73U U81A C114A A119U, the “polymerase ribozyme fitness (log ratio)” value falls from -2.73 to -3.58.

First: C53A U92G A95U
Second: C56A C97U G113U
The “polymerase ribozyme fitness (log ratio)” value of the first is higher: -2.44 for the first, -4.2 for the second.

Going from C53A U133G to U55G C72G A100C A111U, the “polymerase ribozyme fitness (log ratio)” value falls from -0.187 to -4.23.

First: C53A C115U A119U
Second: U54C C82U U106A U109A G135U
The “polymerase ribozyme fitness (log ratio)” value of the first is higher: 0.429 for the first, -4.59 for the second.

First: C56A C64U C124U G128A
Second: U54G C82A
The “polymerase ribozyme fitness (log ratio)” value of the first is lower: -1.71 for the first, -0.235 for the second.

Compared with C53U C101G, C56A G57U U78C G113C is lower in “polymerase ribozyme fitness (log ratio)” value: -1.42 for the first, -3.22 for the second.

Compared with C56A G69U C73U C124A, C53U U78C G120C is lower in “polymerase ribozyme fitness (log ratio)” value: 1.14 for the first, -0.0303 for the second.

Going from U54G U132C to C53U U54G G117A, the “polymerase ribozyme fitness (log ratio)” value falls from -0.456 to -0.796.

Going from C53A C88U C101U C123U to C56A G128C, the “polymerase ribozyme fitness (log ratio)” value falls from 0.64 to -2.8.

Compared with C53G G120A, U54A G60C G113C is lower in “polymerase ribozyme fitness (log ratio)” value: 0.668 for the first, -2.11 for the second.

Going from C53U C123U to U55C C62U C98A, the “polymerase ribozyme fitness (log ratio)” value falls from 1.1 to -6.18.

Going from C53G G63C A91C A118C to C53A G69U U78G C82A, the “polymerase ribozyme fitness (log ratio)” value rises from -4.54 to -0.279.

Compared with C56A U67A, U55A C114U is higher in “polymerase ribozyme fitness (log ratio)” value: -6.26 for the first, -2.35 for the second.

First: U55A C56A
Second: C53G U87G G127U U133G
The “polymerase ribozyme fitness (log ratio)” value of the first is higher: -0.0197 for the first, -0.973 for the second.

Going from U54G C62G U81A C98U to C53G G61A C88A A111U U112G C124A, the “polymerase ribozyme fitness (log ratio)” value rises from -4.8 to -1.

First: C53A G60A C72U A100U G120C C123G
Second: C56A G61C
The “polymerase ribozyme fitness (log ratio)” value of the first is higher: -0.938 for the first, -5.03 for the second.

First: C53U G57U C62G
Second: C56A U78C C98A G122A C123U U132A
The “polymerase ribozyme fitness (log ratio)” value of the first is higher: -2.6 for the first, -5.25 for the second.

Compared with C53U A75G A84U, U55A C64A C115G G128A is lower in “polymerase ribozyme fitness (log ratio)” value: -0.747 for the first, -6.49 for the second.

Compared with C56A G57C, U55A G61U is lower in “polymerase ribozyme fitness (log ratio)” value: 0.379 for the first, -0.0687 for the second.

Compared with C53G C70G, C53U C86G C89G C97U C124U is higher in “polymerase ribozyme fitness (log ratio)” value: -2.85 for the first, -1.92 for the second.

First: C56A C115U U130A
Second: C56A C79G C123G U133A
The “polymerase ribozyme fitness (log ratio)” value of the first is lower: -1.24 for the first, 1.29 for the second.

Going from C53G G135U to C53U C89U, the “polymerase ribozyme fitness (log ratio)” value rises from -1.51 to -0.632.

Going from C53A G60C A103C U116C G120C to C56A G127A, the “polymerase ribozyme fitness (log ratio)” value rises from -7.17 to -1.47.

Going from C53U U78G to C53U U78C, the “polymerase ribozyme fitness (log ratio)” value falls from -0.118 to -0.767.

First: C53G C56A G117C
Second: C53G C115U
The “polymerase ribozyme fitness (log ratio)” value of the first is lower: -4.49 for the first, -1.56 for the second.

Going from U54A A119G G135U to U54G C82A A91C C115G, the “polymerase ribozyme fitness (log ratio)” value falls from 0.414 to -4.39.

Going from C56A U87G A108G G113C to U54C C72U, the “polymerase ribozyme fitness (log ratio)” value rises from -3.65 to -0.0207.

First: C53A U55A G71C C88U C89U
Second: C53A C85A G135U
The “polymerase ribozyme fitness (log ratio)” value of the first is higher: -1.28 for the first, -2.53 for the second.

Compared with C56A C76G, C53G C64U G120A is higher in “polymerase ribozyme fitness (log ratio)” value: 0.138 for the first, 1.12 for the second.

Going from C53A G122U C123A to C56A C124A G127A, the “polymerase ribozyme fitness (log ratio)” value rises from 0.198 to 0.497.

First: C56A C72A
Second: U55G G69C A119U G127C
The “polymerase ribozyme fitness (log ratio)” value of the first is higher: -0.579 for the first, -1.89 for the second.

Compared with C53A U87C, C56A C88U A95C A108G is lower in “polymerase ribozyme fitness (log ratio)” value: 0.506 for the first, -3.49 for the second.

First: U54G C80G C123U
Second: C53A C88A
The “polymerase ribozyme fitness (log ratio)” value of the first is lower: -4.41 for the first, -0.22 for the second.

First: U55C C85A G113C
Second: C53G C72G G117C
The “polymerase ribozyme fitness (log ratio)” value of the first is higher: -3.66 for the first, -4.69 for the second.

Going from U54C C73G A121U to U54G C56U, the “polymerase ribozyme fitness (log ratio)” value falls from 1.17 to -4.05.
